Reference: the supplement of paper PMC12042874
± gives the uncertainty stated by the source.

Experiment: amyloid nucleation score (Sup35N fusion, yeast selection) (log enrichment); library NNK2; higher = more nucleation; inactive = no reads after selection
Summary of the method: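 Output and input plasmid inserts were sequenced by Illumina after psi-negative yeast carrying Sup35N fused to peptides of 20 random codons had been induced 24 hours with 100 μM copper sulfate and grown 7 days at 30°C on medium lacking adenine and uracil. The nucleation score is the DiMSum log enrichment of output over input reads, centred on the mode score of non-aggregating sequences. Sequences with under 100 input reads were excluded.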

Row | Substance | amyloid nucleation score
1 | CDPWQGYRWLP | -0.665 ± 0.37
2 | CDRLSVNHFKEAGVQGSLSE | 0.851 ± 0.21
3 | CDVRSPSF | -1.02 ± 0.3
4 | CDYYLFLCIYRSQNVGTEGG | 6.783 ± 0.063
5 | CECLRDESER | 2.1 ± 0.29
6 | CEEHDFMTSFICIAWAWKWL | -0.66 ± 0.48
7 | CEISFVFIWILIVFNNVDPD | inactive
8 | CELEGWSVGSRVNLLILIR | -0.213 ± 1.1
9 | CESPLSYWWRSRSLFSLCVE | -0.359 ± 0.55
10 | CEYYVHLRY | -0.702 ± 0.49
11 | CFAIFWLFECTTSSMKMTRV | 0.053 ± 1.1
12 | CFAYSSWDTPDMMAWVCRWD | 0.154 ± 0.65
13 | CFFSNQMADGYPQRWAVLRD | 4.94 ± 0.054
14 | CFGYWHSVRARCLRKVGHRT | 0.546 ± 0.38
15 | CFIFKCKKCHLYPMDSVICQ | inactive
16 | CFIFKWFYYCLSVSTIDMSV | -2.48 ± 1.1
17 | CFIPLGVNFGDRTWLTVRIR | 0.357 ± 0.41
18 | CFMAVQI | inactive
19 | CFQYTQTNVMRFSYGIGHRE | 2.12 ± 0.18
20 | CFSCLISWADMNSLLCYLEL | -1.66 ± 0.48
21 | CGCHCVYSPYYCFLTYWCAN | -0.542 ± 0.76
22 | CGFFVNEFTDLAWSYSLAVN | -0.117 ± 0.74
23 | CGKCSVCG | 0.502 ± 0.27
24 | CGLKDTTKLAVDVTPQNM | 0.908 ± 0.3

Row | Substance | amyloid nucleation score
25 | CGMFWLSRYEFYRISSCRRL | 1.3 ± 0.14
26 | CGQRCPKC | 3.81 ± 0.063
27 | CHNYELCCRLFNSFSTNQIA | -0.468 ± 0.29
28 | CHQCVNERFESKREPVPDHS | 0.421 ± 0.45
29 | CHWSTGRYRDVMICVLWGIS | -0.049 ± 0.34
30 | CHYRMVVKRYTFEHYAFYVG | -0.782 ± 0.61
31 | CIFCYANVFAYFTTKGLFVQ | -0.885 ± 0.38
32 | CIFILTD | -1.67 ± 0.45
33 | CIGIWDAIEVVENREL | -0.545 ± 0.64
34 | CIKVCALGCVDGVLVWERRW | 0.538 ± 0.27
35 | CILGENYRIQSTDAHKGVSR | -0.205 ± 0.19
36 | CILLPKVSCCCKGLICCDFV | 0.186 ± 0.34
37 | CIRAECVKLYL | 6.11 ± 0.087
38 | CISVVFVRHNGNFVSFNELV | 6.412 ± 0.05
39 | CISWL | inactive
40 | CIYKS | -1.36 ± 0.75
41 | CKKEVL | inactive
42 | CKSLLVKC | inactive
43 | CKSSGGWNVEMWSVK | -0.399 ± 0.41
44 | CKYFLLVFIVVNYFGLGPMP | inactive
45 | CLAFLGLLKSFMITKGW | -1.49 ± 0.78
46 | CLCCKLVYASNIEIGDYMGF | 6.216 ± 0.034
47 | CLEHHNIWVILLVER | -0.207 ± 0.63
48 | CLFRLSSCVPTWLMQLTMWG | 0.244 ± 0.25

Row | Substance | amyloid nucleation score
49 | CLFYRCCMHDPRSLLEKGRP | 5.835 ± 0.037
50 | CLGGTLYLRCFIVDLLWSTG | -0.219 ± 0.55
51 | CLLNVTEAFTGGSMIGWHFR | 5.393 ± 0.049
52 | CLLYDQGFWQAGVLNVVAAR | -0.085 ± 0.29
53 | CLNRLFHTPGDGDNYCRAIL | 0.34 ± 0.5
54 | CLSASTALREGFWNPWRCGS | 0.164 ± 0.8
55 | CLSCGLRTEDLYWDTRICSD | 1.18 ± 0.29
56 | CLVAQNVTVMVSGV | 5.94 ± 0.065
57 | CLVDGLANVHVYRENLGF | -0.841 ± 0.29
58 | CLWHWSNGRNVGKIYLFAVT | -0.377 ± 0.24
59 | CLYMRFAFHLPELRALTKSP | 0.094 ± 0.77
60 | CMDQNVEPCSLVWQTYFPCY | -0.419 ± 0.6
61 | CMESRCFEL | 0.438 ± 0.56
62 | CMFEFHGVAVGLMRVFHRLW | 5.23 ± 0.062
63 | CMFPSVCQPLTGMTVYGNST | -0.084 ± 0.48
64 | CMGGQQPALGISSFTVVWLY | inactive
65 | CMKMSWFRTRSTYSIEALHS | 0.037 ± 0.41
66 | CMPPRLWMW | -0.137 ± 1.1
67 | CMRCILASCK | -0.348 ± 0.34
68 | CMRVRCFSILNSAFCKCEMA | -1.62 ± 1.1
69 | CMSIHCVTTSRVLKFNSKWY | 3.11 ± 0.15
70 | CNCQYHSVWIT | 0.392 ± 0.26
